Data on three molecules can be found in patent US20250295737A1 (AstraZeneca / MedImmune, published 2025).

T1: mouse RXFP1 (mouse, UniProt Q6R6I7 1-758)
T1 sequence (looked up): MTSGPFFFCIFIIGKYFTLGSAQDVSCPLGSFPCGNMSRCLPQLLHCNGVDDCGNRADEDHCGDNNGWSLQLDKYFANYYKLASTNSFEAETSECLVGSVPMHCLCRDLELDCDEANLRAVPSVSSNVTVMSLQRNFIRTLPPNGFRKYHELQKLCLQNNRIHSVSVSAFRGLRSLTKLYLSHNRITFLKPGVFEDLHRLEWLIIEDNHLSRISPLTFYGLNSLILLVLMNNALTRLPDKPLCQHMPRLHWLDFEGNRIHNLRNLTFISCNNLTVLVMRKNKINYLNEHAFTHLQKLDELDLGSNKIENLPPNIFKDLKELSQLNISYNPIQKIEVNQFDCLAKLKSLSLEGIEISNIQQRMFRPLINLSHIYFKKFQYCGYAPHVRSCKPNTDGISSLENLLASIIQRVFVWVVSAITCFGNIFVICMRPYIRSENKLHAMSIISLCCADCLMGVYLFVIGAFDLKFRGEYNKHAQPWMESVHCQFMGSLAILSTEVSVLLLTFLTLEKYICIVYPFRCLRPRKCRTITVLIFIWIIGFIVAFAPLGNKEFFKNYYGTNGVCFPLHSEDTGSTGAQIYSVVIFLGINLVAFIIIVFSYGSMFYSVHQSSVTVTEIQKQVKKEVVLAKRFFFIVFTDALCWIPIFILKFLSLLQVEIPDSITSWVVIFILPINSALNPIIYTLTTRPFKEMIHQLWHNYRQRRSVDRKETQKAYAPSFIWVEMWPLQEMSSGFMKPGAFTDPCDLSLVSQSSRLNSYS

T2: human RXFP1 (human, UniProt Q9HBX9 1-757)
T2 sequence (looked up): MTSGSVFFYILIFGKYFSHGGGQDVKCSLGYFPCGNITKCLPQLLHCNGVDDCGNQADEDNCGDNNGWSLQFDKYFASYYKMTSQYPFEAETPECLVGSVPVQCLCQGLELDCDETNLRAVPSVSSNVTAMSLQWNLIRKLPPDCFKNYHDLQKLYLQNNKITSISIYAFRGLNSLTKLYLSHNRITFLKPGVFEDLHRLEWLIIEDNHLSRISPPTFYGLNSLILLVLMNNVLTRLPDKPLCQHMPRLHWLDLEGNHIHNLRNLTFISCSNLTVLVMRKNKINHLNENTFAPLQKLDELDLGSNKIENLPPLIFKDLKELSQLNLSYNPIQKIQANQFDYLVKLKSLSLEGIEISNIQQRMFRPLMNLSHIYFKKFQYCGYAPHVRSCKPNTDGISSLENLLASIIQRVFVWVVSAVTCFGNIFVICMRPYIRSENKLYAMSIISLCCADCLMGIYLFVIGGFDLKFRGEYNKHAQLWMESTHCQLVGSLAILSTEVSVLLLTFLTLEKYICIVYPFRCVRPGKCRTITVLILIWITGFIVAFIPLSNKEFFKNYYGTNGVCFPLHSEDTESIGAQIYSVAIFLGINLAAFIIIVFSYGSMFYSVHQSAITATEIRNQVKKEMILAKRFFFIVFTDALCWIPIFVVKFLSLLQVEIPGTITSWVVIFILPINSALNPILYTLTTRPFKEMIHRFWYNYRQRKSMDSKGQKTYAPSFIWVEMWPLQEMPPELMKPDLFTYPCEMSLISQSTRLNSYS

B1: RELAX0084 (Fc fusion)
chain 1: DKTHTCPPCPAPEFEGGPSVFLFPPKPKDTLMISRTPEVTCVVVDVSHEDPEVKFNWYVDGVEVHNAKTKPREEQYNSTYRVVSVLTVLHQDWLNGKEYKCKVSNKALPASIEKTISKAKGQPREPQVYTLPPCREEMTKNQVSLWCLVKGFYPSDIAVEWESNGQPENNYKTTPPVLDSDGSFFLYSKLTVDKSRWQQGNVFSCSVMHEALHNHYTQKSLSLSPGAPAPAPAPAPAPAPAPAPAGSQLYSALANKCCHVGCTKRSLARFC
chain 2: DKTHTCPPCPAPEFEGGPSVFLFPPKPKDTLMISRTPEVTCVVVDVSHEDPEVKFNWYVDGVEVHNAKTKPREEQYNSTYRVVSVLTVLHQDWLNGKEYKCKVSNKALPASIEKTISKAKGQPREPQVCTLPPSREEMTKNQVSLSCAVKGFYPSDIAVEWESNGQPENNYKTTPPVLDSDGSFFLVSKLTVDKSRWQQGNVFSCSVMHEALHNHYTQKSLSLSPGGGGGSGGGGSGGGGSGGGGGSSWMEEVIKLCGRELVRAQIAICGMSTWS
B2: RELAX0086 (Fc fusion)
chain 1: DKTHTCPPCPAPEFEGGPSVFLFPPKPKDTLMISRTPEVTCVVVDVSHEDPEVKFNWYVDGVEVHNAKTKPREEQYNSTYRVVSVLTVLHQDWLNGKEYKCKVSNKALPASIEKTISKAKGQPREPQVYTLPPCREEMTKNQVSLWCLVKGFYPSDIAVEWESNGQPENNYKTTPPVLDSDGSFFLYSKLTVDKSRWQQGNVFSCSVMHEALHNHYTQKSLSLSPGGGGGSGGGGSGGGGGSQLYSALANKCCHVGCTKRSLARFC
chain 2: B1 chain 2
B3: RELAX0085 (Fc fusion)
chain 1: DKTHTCPPCPAPEFEGGPSVFLFPPKPKDTLMISRTPEVTCVVVDVSHEDPEVKFNWYVDGVEVHNAKTKPREEQYNSTYRVVSVLTVLHQDWLNGKEYKCKVSNKALPASIEKTISKAKGQPREPQVYTLPPCREEMTKNQVSLWCLVKGFYPSDIAVEWESNGQPENNYKTTPPVLDSDGSFFLYSKLTVDKSRWQQGNVFSCSVMHEALHNHYTQKSLSLSPGGGGGSGGGGSGGGGSGGGGGSQLYSALANKCCHVGCTKRSLARFC
chain 2: DKTHTCPPCPAPEFEGGPSVFLFPPKPKDTLMISRTPEVTCVVVDVSHEDPEVKFNWYVDGVEVHNAKTKPREEQYNSTYRVVSVLTVLHQDWLNGKEYKCKVSNKALPASIEKTISKAKGQPREPQVCTLPPSREEMTKNQVSLSCAVKGFYPSDIAVEWESNGQPENNYKTTPPVLDSDGSFFLVSKLTVDKSRWQQGNVFSCSVMHEALHNHYTQKSLSLSPGAPAPAPAPAPAPAPAPAPAGSSWMEEVIKLCGRELVRAQIAICGMSTWS

The target of one assay is T1, mouse RXFP1. As to the kind of experiment: cell-based or functional assay.
As to B1, the “EC50 mRXFP1 (M), cAMP HTRF assay” value worked out at 3.48e-11 M.
Same read-out and setting: to B2 belongs 2.68e-11 M; to B3, 3.09e-11 M.

For a further assay, the target named is T2, human RXFP1. Kind of assay: cell-based or functional assay.
Consider B1, for which the “EC50 hRXFP1 (M), cAMP HTRF assay” value is 5.34e-11 M.
The same measure, in the same setting: in the case of B2 it was 4.49e-11 M; in that of B3, 6.37e-11 M.

The target of the next assay is human RXFP2 (human, UniProt Q8WXD0 1-754). As to the kind of experiment: cell-based or functional assay.
Sequence of human RXFP2 (Q8WXD0 whole entry): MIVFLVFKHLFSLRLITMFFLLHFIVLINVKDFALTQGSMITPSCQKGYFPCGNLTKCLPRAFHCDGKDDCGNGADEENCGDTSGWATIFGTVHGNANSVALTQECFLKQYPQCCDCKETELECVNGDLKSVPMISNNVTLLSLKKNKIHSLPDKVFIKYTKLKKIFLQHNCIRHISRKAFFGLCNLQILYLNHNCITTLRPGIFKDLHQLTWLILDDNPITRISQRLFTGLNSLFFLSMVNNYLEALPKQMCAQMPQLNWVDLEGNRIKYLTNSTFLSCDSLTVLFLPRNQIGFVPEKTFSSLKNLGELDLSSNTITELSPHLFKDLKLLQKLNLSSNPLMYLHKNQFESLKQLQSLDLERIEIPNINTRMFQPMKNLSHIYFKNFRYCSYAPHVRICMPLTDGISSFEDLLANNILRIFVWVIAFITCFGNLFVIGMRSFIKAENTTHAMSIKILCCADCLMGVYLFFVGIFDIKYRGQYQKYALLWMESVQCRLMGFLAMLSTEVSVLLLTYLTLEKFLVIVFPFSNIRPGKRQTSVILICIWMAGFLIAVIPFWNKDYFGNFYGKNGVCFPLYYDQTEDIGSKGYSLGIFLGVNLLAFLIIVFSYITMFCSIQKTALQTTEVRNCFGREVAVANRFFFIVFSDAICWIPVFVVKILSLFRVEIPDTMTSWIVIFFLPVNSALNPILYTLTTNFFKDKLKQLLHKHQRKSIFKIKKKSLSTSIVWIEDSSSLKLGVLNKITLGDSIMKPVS
For B1, the “EC50 hRXFP2 (M), cAMP HTRF assay” value came to 1.2e-08 M.
Take B2: the “EC50 hRXFP2 (M), cAMP HTRF assay” value was determined as 4.88e-08 M.
The same measure, in the same setting: to B3 belongs 4.67e-08 M.
